{"source": "paper PMC12468009", "about": "“Development of a QCM-D-Based Aptasensor for the Real-Time Detection of β-Lactoglobulin”", "biological_target": "T1, beta-lactoglobulin (β-LG) (bovine? (cow's milk), UniProt P02754 17-178)", "T1 sequence": "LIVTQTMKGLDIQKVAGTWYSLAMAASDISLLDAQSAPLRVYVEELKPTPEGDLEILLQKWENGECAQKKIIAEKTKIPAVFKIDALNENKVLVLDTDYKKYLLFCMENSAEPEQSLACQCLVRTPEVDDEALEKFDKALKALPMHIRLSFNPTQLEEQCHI", "assay": "dot blot; 100 µg β-LG on nitrocellulose, 400 pmol aptamer in PBS, 37 °C; Dot blot: PBS, 37 °C, 1 h, membrane blocked with 5% BSA/0.01% Tween 20; QCM-D: β-LG in PBS pH 3.5, 37 °C, aptamer 0.5 µM in TRIS with 0.1% BSA for immobilization; PBS (pH 7.4 stock) contains CaCl2 and MgCl2", "conditions": "protein: native; tags: none; chain copies: 2; label: biotin; predicted secondary structure only", "data": [{"binder": "Apt 356 (ssDNA, 5'-biotin) DNA: GCCTGTTGTGAGCCTCCTAACCTGGTGTGCAAGGTGGACTCTCTTTATCTTGTTGTCAGTCTCATCACCGCATGCTTATTCTTGTCTCCC", "values": [{"measurement": "binding result", "value": "binds"}]}]}
